This note sets out measurements from publication PMC8000184, “Structural Insights into a Bifunctional Peptide Methionine Sulfoxide Reductase MsrA/B Fusion Protein from Helicobacter pylori” (Antioxidants, 2021).

Data set [1] deals with CN(C)c1ccc(N=Nc2ccc(S(=O)(=O)N[C@@H](CC[S@+](C)[O-])C(=O)O)cc2)cc1. As to the kind of experiment: DTT-dependent HPLC assay of dabsyl-Met. The data set is classed as biochemical, Helicobacter pylori. Particulars: 20 mM DTT, 50 mM sodium phosphate pH 7.5, 50 mM NaCl, 37 °C, Met-S-O, methods dabsyl-Met-S-O, MsrA site.
For data set [2], the system named is CN(C)c1ccc(N=Nc2ccc(S(=O)(=O)N[C@@H](CC[S@@+](C)[O-])C(=O)O)cc2)cc1. As to the kind of experiment: DTT-dependent HPLC assay of dabsyl-Met. The data set is classed as biochemical, Helicobacter pylori. The note with it: 20 mM DTT, 50 mM sodium phosphate pH 7.5, 50 mM NaCl, 37 °C, Met-R-O, methods dabsyl-Met-R-O, MsrB site.

Take “HpMsrAB (WT) (Helicobacter pylori 26695)”: in data set [1], the Km amounted to 170 ± 60 µM, the kcat amounted to 0.17 ± 0.0217 s⁻¹ and the specificity constant (kcat/Km) came out at 1000 ± 117 M⁻¹ s⁻¹. In data set [2], the Km came out at 50 ± 20 µM, the catalytic constant (kcat) worked out at 0.157 ± 0.00667 s⁻¹ and the catalytic efficiency (kcat/Km) was determined as 3130 ± 133 M⁻¹ s⁻¹.
